The values below come from PMC4161306, “Regulation of Arabidopsis Flowering by the Histone Mark Readers MRG1/2 via Interaction with CONSTANS to Modulate FT Expression” (PLoS Genetics, 2014).

The target in the test is MRG2 chromodomain (residues 41-123) (Arabidopsis thaliana) (UniProt Q4V3E2). Nature of the test: ITC; 25 C, MicroCal iTC200; 50 mM Tris pH 8.0, 100 mM NaCl; 0.2-0.4 mM protein in the cell, 2-4 mM peptide injected in 2 ul aliquots (20 injections); one-site model. (ITC needs no label: the signal is the heat of the interaction.)
Sequence of MRG2 chromodomain (residues 41-123) (Arabidopsis thaliana) (Q4V3E2 41-123): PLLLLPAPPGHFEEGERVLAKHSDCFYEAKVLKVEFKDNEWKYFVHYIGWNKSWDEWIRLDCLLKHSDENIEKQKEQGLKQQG

As a reminder, the Kd is the constant that tells how readily two partners part at equilibrium. Lower therefore signals a tighter complex. For H3K4me3 peptide (residues 1-9), the Kd was determined as 800 µM.

Substance H3K36me3 peptide (residues 31-41) displayed a Kd of 690 µM.
